# Measured values as given in patent US20070020267A1.
# What was measured:
# hVEGF (human) [1] = molecular target: hVEGF (human) (UniProt P15692); assay: competition; 25 C; settings: Fab
# hVEGF (human) [2] = molecular target: hVEGF (human) (UniProt P15692); assay: SPR; 37 C; settings: Fab
# hVEGF (human) [3] = molecular target: hVEGF (human) (UniProt P15692); assay: SPR; 25 C; settings: Fab
# hVEGF (human) [4] = molecular target: hVEGF (human) (UniProt P15692); assay: SPR; settings: Fab
# mVEGF (mouse) = mVEGF (mouse) (UniProt Q00731); assay: competition; 25 C; settings: Fab
# [5] = molecular target: T1, murine VEGF (mVEGF) (mouse) (UniProt Q00731); assay: BIAcore or solution binding ELISA, control Fab
# T1 sequence (looked up): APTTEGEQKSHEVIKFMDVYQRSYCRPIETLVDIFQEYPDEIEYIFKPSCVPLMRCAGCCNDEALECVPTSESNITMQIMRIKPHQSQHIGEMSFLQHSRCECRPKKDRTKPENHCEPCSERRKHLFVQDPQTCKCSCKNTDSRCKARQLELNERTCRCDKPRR
# Sequence of Y0317 Fab (VH): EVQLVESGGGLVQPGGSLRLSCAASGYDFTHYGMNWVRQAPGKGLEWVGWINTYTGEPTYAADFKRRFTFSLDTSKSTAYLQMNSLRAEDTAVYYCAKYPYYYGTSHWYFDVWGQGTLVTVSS
# Sequence of Y0317 Fab (VL): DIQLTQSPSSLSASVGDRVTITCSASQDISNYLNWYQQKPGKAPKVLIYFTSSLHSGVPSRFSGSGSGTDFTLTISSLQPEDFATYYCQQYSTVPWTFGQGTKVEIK
Substance,IC50 (hVEGF (human) [1]) [nM],Kd (hVEGF (human) [2]) [nM],Kd (hVEGF (human) [3]) [nM],Kd (hVEGF (human) [4]) [nM],IC50 (mVEGF (mouse)) [nM],Kd [5] [nM]
Avastin,1.1,12.9,2.9,2.9,,
Y0317,0.02,0.11,0.2,,300,
Y0317 Fab,,,,,,350
